Experimental findings from paper PMC3485210 are described below.

Series [1] has as its system G44P (Bacillus subtilis bacteriophage SPP1). In words: EMSA. As to conditions: EMSA: 50 mM Tris-HCl pH 7.5, 50 mM NaCl, 50 ng/ul BSA, 5% glycerol, 1 mM EDTA, 0.2 nM DNA, 37 C, 15 min (20 min in Fig 4 legend), 6% PAGE.
For series [2], the target named is gene 44 product (G44P) of Bacillus subtilis bacteriophage SPP1 (Bacillus subtilis bacteriophage SPP1). In words: SEC; FPLC gel filtration on Superdex 75 in buffer A (50 mM phosphate pH 7.5, 5% glycerol, 1 mM EDTA) with 1 M NaCl, 0.5 ml/min; 30 µg protein in 200 µl; mass from a standard curve of Kav versus log10 of molecular mass.

The substance DL-D (D-loop) yielded a K half in series [1] of 5 nM.
Take “CGCAAGCGACAGGAACCTCGAGAAGCTTCCGGTAGCAGCCTGAGCGGTGGTTGAATTCCTCGAGGTTCCTGTCGCTTGCG / CGCAAGCGACAGGAACCTCGAGGAATTCAACCACCGCTCAACTCAACTGCAGTCTAGACTCGAGGTTCCTGTCGCTTGCG / CGCAAGCGACAGGAACCTCGAGTCTAGACTGCAGTTGAGTCCTTGCTAGGACGGATCCCTCGAGGTTCCTGTCGCTTGCG / CGCAAGCGACAGGAACCTCGAGGGATCCGTCCTAGCAAGGGGCTGCTACCGGAAGCTTCTCGAGGTTCCTGTCGCTTGCG [HJ-J3]”: the K half in series [1] was determined as 10 nM.
The substance “gene 44 product (G44P) of Bacillus subtilis bacteriophage SPP1 (enzyme)” returned a stoichiometry N in series [2] of 2.
On to “CGCAAGCGACAGGAACCTCGAGGAATTCAACCACCGCTCAACTCAACTGCAGTCTAGACTCGAGGTTCCTGTCGCTTGCG (double strand) [80-bp dsDNA]”, for which the K half in series [1] (complexes unstable in gel) worked out at 48 nM.
